# Biological target: Human VEGF165 (human) (UniProt P15692)
# Assay: ELISA; human VEGF165 coated on MaxiSorp plates (0.4 µg/mL in PBS, pH 7.4, overnight); aflibercept samples added as 2-fold serial dilutions (1000.0-1.0 ng/mL) in 4% milk powder in PBS-T, RT, 1.5 h; detected with anti-human IgG γ chain-HRPO; EC50 by four-parametric log model
# Human VEGF165 (human), sequence (P15692 other isoform, or with tags, fused parts or gaps): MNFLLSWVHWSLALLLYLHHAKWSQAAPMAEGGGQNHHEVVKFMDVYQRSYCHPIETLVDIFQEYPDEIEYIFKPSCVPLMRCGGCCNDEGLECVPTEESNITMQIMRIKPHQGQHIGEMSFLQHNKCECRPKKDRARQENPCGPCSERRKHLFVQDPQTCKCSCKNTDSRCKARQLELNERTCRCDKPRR
# Aflibercept with sialylated N-glycans (AFLI^Sia), isolated from intercellular fluid (Fc fusion), sequence (chain): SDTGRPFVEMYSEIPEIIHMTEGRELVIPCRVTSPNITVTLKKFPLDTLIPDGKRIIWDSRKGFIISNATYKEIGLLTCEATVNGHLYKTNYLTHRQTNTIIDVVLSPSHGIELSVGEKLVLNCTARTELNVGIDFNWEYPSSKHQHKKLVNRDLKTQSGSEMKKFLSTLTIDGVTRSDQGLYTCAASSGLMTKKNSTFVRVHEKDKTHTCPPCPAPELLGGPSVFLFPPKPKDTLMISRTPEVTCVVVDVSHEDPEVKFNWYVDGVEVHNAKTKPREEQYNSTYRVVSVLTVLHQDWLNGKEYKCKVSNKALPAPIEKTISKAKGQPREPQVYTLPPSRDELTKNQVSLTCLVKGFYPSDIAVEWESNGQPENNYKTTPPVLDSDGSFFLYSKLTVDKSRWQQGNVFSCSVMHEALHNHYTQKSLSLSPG
# Aflibercept with sialylated N-glycans (AFLI^Sia), isolated from total soluble protein (Fc fusion), sequence (chain): as above
# Aflibercept with GlcNAc-terminated N-glycans (AFLI^GnGn), isolated from total soluble protein (Fc fusion), sequence (chain): as above
row,EC50,Substance
1,0.242 nM,"Aflibercept with GlcNAc-terminated N-glycans (AFLI^GnGn), isolated from total soluble protein (Fc fusion)"
2,0.358 nM,"Aflibercept with sialylated N-glycans (AFLI^Sia), isolated from intercellular fluid (Fc fusion)"
3,0.31 nM,"Aflibercept with sialylated N-glycans (AFLI^Sia), isolated from total soluble protein (Fc fusion)"

# — publication PMC11036266
